Test results: the RNAGym collection of RNA variant scans (doi:10.1093/nar/gkz1192)

B1: CPEB3 Ribozyme (parent)
chain: UAACAGGGGGCCACAGCAGAAGCGUUCACGUCGCAGCCCCUGUCAGAUUCUGGUGAAUCUGCGAAUUCUGCUGUAUAUCUC

Variants of: B1
Assay: self-cleavage, relative activity (ratio to wild type); higher = more cleavage; in vitro, sequencing
Method in brief: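 Barcoded CPEB3 ribozyme mutants, produced by rounds of error-prone PCR, self-cleaved while being transcribed with T7 RNA polymerase for 5 hours at 37°C and during a subsequent 15 min DNase I step before EDTA was added. Sequencing of template-switched cDNA on Illumina gave cleaved and total reads, and DNA sequencing assigned barcodes to variants. Each variant's relative activity is its cleaved/total read fraction divided by the unmutated ribozyme's fraction, averaged across three batches. A variant needed a minimum of 5 reads.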

Compared with UAACAGGGGGCCACAGCAGAAGCAUUCACGACGCAGCCCCUGUCAGAUUCUGGUGAAUCUGCGAAUUCUGCUGUAUAUCUC, UAACAGGGGGCCACAGCAGAAGCAUUCACGCCGCAGCCCCUGUCAGAUUCUGGUGAAUCUGCGAAUUCUGCUGUAUAUCUC is lower in self-cleavage: 0.2 for the first, 0.15 for the second.

Compared with UAACAGGGGGCCACAGCAGAAGCAUUCACGUCGCAGCCCCAGUCAGAUUCUGGUGAAUCUGCGAAUUCUGCUGUAUAUCUC, UAACAGGGGGCCACAGCAGAAGCAUUCACGUCGCAGCCCCCGUCAGAUUCUGGUGAAUCUGCGAAUUCUGCUGUAUAUCUC is higher in self-cleavage: 0.21 for the first, 0.3 for the second.

Going from UAACAGGGGGCCACAGCAGAAGCAUUCACGUCGCAGCCCCGGUCAGAUUCUGGUGAAUCUGCGAAUUCUGCUGUAUAUCUC to UAACAGGGGGCCACAGCAGAAGCAUUCACGUCGCAGCCCCUGACAGAUUCUGGUGAAUCUGCGAAUUCUGCUGUAUAUCUC, the self-cleavage rises from 0.12 to 0.17.

First: UAACAGGGGGCCACAGCAGAAGCAUUCACGUCGCAGCCCCUGCCAGAUUCUGGUGAAUCUGCGAAUUCUGCUGUAUAUCUC
Second: UAACAGGGGGCCACAGCAGAAGCAUUCACGUCGCAGCCCCUGUCAGACUCUGGUGAAUCUGCGAAUUCUGCUGUAUAUCUC
The self-cleavage of the first is higher: 0.32 for the first, 0.22 for the second.

Going from UAACAGGGGGCCACAGCAGAAGCAUUCACGUCGCAGCCCCUGUCAGAUACUGGUGAAUCUGCGAAUUCUGCUGUAUAUCUC to UAACAGGGGGCCACAGCAGAAGCAUUCACGUCGCAGCCCCUGUCAGAUCCUGGUGAAUCUGCGAAUUCUGCUGUAUAUCUC, the self-cleavage falls from 0.39 to 0.21.

First: UAACAGGGGGCCACAGCAGAAGCAUUCACGUCGCAGCCCCUGUCAGAUUCAGGUGAAUCUGCGAAUUCUGCUGUAUAUCUC
Second: UAACAGGGGGCCACAGCAGAAGCAUUCACGUCGCAGCCCCUGUCAGAUUCCGGUGAAUCUGCGAAUUCUGCUGUAUAUCUC
The self-cleavage of the first is lower: 0.15 for the first, 0.31 for the second.

Compared with UAACAGGGGGCCACAGCAGAAGCAUUCACGUCGCAGCCCCUGUCAGAUUCGGGUGAAUCUGCGAAUUCUGCUGUAUAUCUC, UAACAGGGGGCCACAGCAGAAGCAUUCACGUCGCAGCCCCUGUCAGAUUCUGGAGAAUCUGCGAAUUCUGCUGUAUAUCUC is higher in self-cleavage: 0.11 for the first, 0.25 for the second.

First: UAACAGGGGGCCACAGCAGAAGCAUUCACGUCGCAGCCCCUGUCAGAUUCUGGCGAAUCUGCGAAUUCUGCUGUAUAUCUC
Second: UAACAGGGGGCCACAGCAGAAGCAUUCACGUCGCAGCCCCUGUCAGAUUCUGGGGAAUCUGCGAAUUCUGCUGUAUAUCUC
The self-cleavage of the first is higher: 0.27 for the first, 0.15 for the second.

Going from UAACAGGGGGCCACAGCAGAAGCAUUCACGUCGCAGCCCCUGUCAGAUUCUGGUGAAACUGCGAAUUCUGCUGUAUAUCUC to UAACAGGGGGCCACAGCAGAAGCAUUCACGUCGCAGCCCCUGUCAGAUUCUGGUGAACCUGCGAAUUCUGCUGUAUAUCUC, the self-cleavage falls from 0.34 to 0.12.

First: UAACAGGGGGCCACAGCAGAAGCAUUCACGUCGCAGCCCCUGUCAGAUUCUGGUGAAUCAGCGAAUUCUGCUGUAUAUCUC
Second: UAACAGGGGGCCACAGCAGAAGCAUUCACGUCGCAGCCCCUGUCAGAUUCUGGUGAAUCCGCGAAUUCUGCUGUAUAUCUC
The self-cleavage of the first is higher: 0.28 for the first, 0.24 for the second.

First: UAACAGGGGGCCACAGCAGAAGCAUUCACGUCGCAGCCCCUGUCAGAUUCUGGUGAAUCGGCGAAUUCUGCUGUAUAUCUC
Second: UAACAGGGGGCCACAGCAGAAGCAUUCACGUCGCAGCCCCUGUCAGAUUCUGGUGAAUCUGCGAAAUCUGCUGUAUAUCUC
The self-cleavage of the first is lower: 0.13 for the first, 0.3 for the second.

First: UAACAGGGGGCCACAGCAGAAGCAUUCACGUCGCAGCCCCUGUCAGAUUCUGGUGAAUCUGCGAACUCUGCUGUAUAUCUC
Second: UAACAGGGGGCCACAGCAGAAGCAUUCACGUCGCAGCCCCUGUCAGAUUCUGGUGAAUCUGCGAAUACUGCUGUAUAUCUC
The self-cleavage of the first is higher: 0.39 for the first, 0.18 for the second.

Compared with UAACAGGGGGCCACAGCAGAAGCAUUCACGUCGCAGCCCCUGUCAGAUUCUGGUGAAUCUGCGAAUCCUGCUGUAUAUCUC, UAACAGGGGGCCACAGCAGAAGCAUUCACGUCGCAGCCCCUGUCAGAUUCUGGUGAAUCUGCGAAUUCAGCUGUAUAUCUC is higher in self-cleavage: 0.22 for the first, 0.25 for the second.

First: UAACAGGGGGCCACAGCAGAAGCAUUCACGUCGCAGCCCCUGUCAGAUUCUGGUGAAUCUGCGAAUUCCGCUGUAUAUCUC
Second: UAACAGGGGGCCACAGCAGAAGCAUUCACGUCGCAGCCCCUGUCAGAUUCUGGUGAAUCUGCGAAUUCGGCUGUAUAUCUC
The self-cleavage of the first is higher: 0.32 for the first, 0.13 for the second.

Compared with UAACAGGGGGCCACAGCAGAAGCAUUCACGUCGCAGCCCCUGUCAGAUUCUGGUGAAUCUGCGAAUUCUGCAGUAUAUCUC, UAACAGGGGGCCACAGCAGAAGCAUUCACGUCGCAGCCCCUGUCAGAUUCUGGUGAAUCUGCGAAUUCUGCCGUAUAUCUC is lower in self-cleavage: 0.29 for the first, 0.25 for the second.

Compared with UAACAGGGGGCCACAGCAGAAGCAUUCACGUCGCAGCCCCUGUCAGAUUCUGGUGAAUCUGCGAAUUCUGCUGAAUAUCUC, UAACAGGGGGCCACAGCAGAAGCAUUCACGUCGCAGCCCCUGUCAGAUUCUGGUGAAUCUGCGAAUUCUGCUGGAUAUCUC is lower in self-cleavage: 0.18 for the first, 0.13 for the second.

First: UAACAGGGGGCCACAGCAGAAGCAUUCACGUCGCAGCCCCUGUCAGAUUCUGGUGAAUCUGCGAAUUCUGCUGUACAUCUC
Second: UAACAGGGGGCCACAGCAGAAGCAUUCACGUCGCAGCCCCUGUCAGAUUCUGGUGAAUCUGCGAAUUCUGCUGUAUAACUC
The self-cleavage of the first is higher: 0.26 for the first, 0.07 for the second.

Going from UAACAGGGGGCCACAGCAGAAGCAUUCACGUCGCAGCCCCUGUCAGAUUCUGGUGAAUCUGCGAAUUCUGCUGUAUACCUC to UAACAGGGGGCCACAGCAGAAGCAUUCACGUCGCAGCCCCUGUCAGAUUCUGGUGAAUCUGCGAAUUCUGCUGUAUAGCUC, the self-cleavage falls from 0.33 to 0.16.

Going from UAACAGGGGGCCACAGCAGAAGCAUUCACGUCGCAGCCCCUGUCAGAUUCUGGUGAAUCUGCGAAUUCUGCUGUAUAUCAC to UAACAGGGGGCCACAGCAGAAGCAUUCACGUCGCAGCCCCUGUCAGAUUCUGGUGAAUCUGCGAAUUCUGCUGUAUAUCCC, the self-cleavage rises from 0.24 to 0.59.

Compared with UAACAGGGGGCCACAGCAGAAGCCUUCACGUCGCAGCCCCUGUCAGAUUCUGGUGAAUCUGCGAAUUCUGCUGUAUAUCUC, UAACAGGGGGCCACAGCAGAAGCCUUCGCGUCGCAGCCCCUGUCAGAUUCUGGUGAAUCUGCGAAUUCUGCUGUAUAUCUC is higher in self-cleavage: 0.31 for the first, 0.41 for the second.

Going from UAACAGGGGGCCACAGCAGAAGCCUUCUCGUCGCAGCCCCUGUCAGAUUCUGGUGAAUCUGCGAAUUCUGCUGUAUAUCUC to UAACAGGGGGCCACAGCAGAAGCCUUCACGUCGCGGCCCCUGUCAGAUUCUGGUGAAUCUGCGAAUUCUGCUGUAUAUCUC, the self-cleavage falls from 0.28 to 0.1.

Compared with UAACAGGGGGCCACAGCAGAAGCCUUCACGUCGCAGCCCCUGUCGGAUUCUGGUGAAUCUGCGAAUUCUGCUGUAUAUCUC, UAACAGGGGGCCACAGCAGAAGCCUUCACGUCGCAGCCCCUGUCUGAUUCUGGUGAAUCUGCGAAUUCUGCUGUAUAUCUC is lower in self-cleavage: 0.21 for the first, 0.13 for the second.

Going from UAACAGGGGGCCACAGCAGAAGCCUUCACGUCGCAGCCCCUGUCAGGUUCUGGUGAAUCUGCGAAUUCUGCUGUAUAUCUC to UAACAGGGGGCCACAGCAGAAGCCUUCACGUCGCAGCCCCUGUCAGAUUCUGGUGAGUCUGCGAAUUCUGCUGUAUAUCUC, the self-cleavage falls from 0.48 to 0.11.

Compared with UAACAGGGGGCCACAGCAGAAGCCUUCACGUCGCAGCCCCUGUCAGAUUCUGGUGAUUCUGCGAAUUCUGCUGUAUAUCUC, UAACAGGGGGCCACAGCAGAAGCCUUCACGUCGCAGCCCCUGUCAGAUUCUGGUGAAUCUGCGGAUUCUGCUGUAUAUCUC is higher in self-cleavage: 0.11 for the first, 0.45 for the second.

First: UAACAGGGGGCCACAGCAGAAGCCUUCACGUCGCAGCCCCUGUCAGAUUCUGGUGAAUCUGCGAAUUCUGCUGUUUAUCUC
Second: UAACAGGGGGCCACAGCAGAAGCCUUCACGUCGCAGCCCCUGUCAGAUUCUGGUGAAUCUGCGAAUUCUGCUGUAUGUCUC
The self-cleavage of the first is higher: 0.33 for the first, 0.3 for the second.

Going from UAACAGGGGGCCACAGCAGAAGCCUUCACGUCGCAGCCCCUGUCAGAUUCUGGUGAAUCUGCGAAUUCUGCUGUAUUUCUC to UAACAGGGGGCCACAGCAGAAGCCUUCAAGUCGCAGCCCCUGUCAGAUUCUGGUGAAUCUGCGAAUUCUGCUGUAUAUCUC, the self-cleavage rises from 0.09 to 0.23.

Going from UAACAGGGGGCCACAGCAGAAGCCUUCACCUCGCAGCCCCUGUCAGAUUCUGGUGAAUCUGCGAAUUCUGCUGUAUAUCUC to UAACAGGGGGCCACAGCAGAAGCCUUCACGUCGCAGCCCCUAUCAGAUUCUGGUGAAUCUGCGAAUUCUGCUGUAUAUCUC, the self-cleavage rises from 0.11 to 0.32.

UAACAGGGGGCCACAGCAGAAGCCUUCACGUCGCAGCCCCUGUCAGAUUCUGGUGAAUCUACGAAUUCUGCUGUAUAUCUC and UAACAGGGGGCCACAGCAGAAGCCUUCACGUCGCAGCCCCUGUCAGAUUCUGGUGAAUCUGCAAAUUCUGCUGUAUAUCUC are the same in self-cleavage: 0.18 for the first, 0.18 for the second.

Going from UAACAGGGGGCCACAGCAGAAGCCUUCACGUCGCAGCCCCUGUCAGAUUCUGGUGAAUCUGCGAAUUCUGCUAUAUAUCUC to UAACAGGGGGCCACAGCAGAAGCCAUCACGUCGCAGCCCCUGUCAGAUUCUGGUGAAUCUGCGAAUUCUGCUGUAUAUCUC, the self-cleavage rises from 0.16 to 0.21.

First: UAACAGGGGGCCACAGCAGAAGCCUUCACGACGCAGCCCCUGUCAGAUUCUGGUGAAUCUGCGAAUUCUGCUGUAUAUCUC
Second: UAACAGGGGGCCACAGCAGAAGCCUUCACGCCGCAGCCCCUGUCAGAUUCUGGUGAAUCUGCGAAUUCUGCUGUAUAUCUC
The self-cleavage of the first is higher: 0.19 for the first, 0.1 for the second.

Compared with UAACAGGGGGCCACAGCAGAAGCCUUCACGGCGCAGCCCCUGUCAGAUUCUGGUGAAUCUGCGAAUUCUGCUGUAUAUCUC, UAACAGGGGGCCACAGCAGAAGCCUUCACGUCGCAGCCCCUGACAGAUUCUGGUGAAUCUGCGAAUUCUGCUGUAUAUCUC is higher in self-cleavage: 0.34 for the first, 0.54 for the second.

Compared with UAACAGGGGGCCACAGCAGAAGCCUUCACGUCGCAGCCCCUGCCAGAUUCUGGUGAAUCUGCGAAUUCUGCUGUAUAUCUC, UAACAGGGGGCCACAGCAGAAGCCUUCACGUCGCAGCCCCUGUCAGACUCUGGUGAAUCUGCGAAUUCUGCUGUAUAUCUC is higher in self-cleavage: 0.18 for the first, 0.22 for the second.

Going from UAACAGGGGGCCACAGCAGAAGCCUUCACGUCGCAGCCCCUGUCAGAUCCUGGUGAAUCUGCGAAUUCUGCUGUAUAUCUC to UAACAGGGGGCCACAGCAGAAGCCUUCACGUCGCAGCCCCUGUCAGAUUCAGGUGAAUCUGCGAAUUCUGCUGUAUAUCUC, the self-cleavage falls from 0.46 to 0.3.

Going from UAACAGGGGGCCACAGCAGAAGCCUUCACGUCGCAGCCCCUGUCAGAUUCCGGUGAAUCUGCGAAUUCUGCUGUAUAUCUC to UAACAGGGGGCCACAGCAGAAGCCUUCACGUCGCAGCCCCUGUCAGAUUCUGGAGAAUCUGCGAAUUCUGCUGUAUAUCUC, the self-cleavage falls from 0.32 to 0.13.
